Molecular target: human dynein heavy chain with an N-terminal GFP, within the GFP-dynein complex (human) (UniProt Q14204)
Test: single-molecule photobleaching step counting

stoichiometry N: 2
Substance: human dynein heavy chain with an N-terminal GFP, within the GFP-dynein complex, Q14204 1-4646

— PMC5007201
